These results are taken from patent publication US20210261685A1 (Alector, published 2021).

What all share (experiment): SPR, Carterra LSA, antibody immobilised
The target in assay [1] is T1, murine MerTK extracellular domain (ECD), recombinant (mouse, UniProt Q60805 19-497).
T1 construct: also called moMerTK; mouse MerTK; not shown: polyHis tag or TEVS/Thrombin/murine IgG2a Fc tag
T1 sequence: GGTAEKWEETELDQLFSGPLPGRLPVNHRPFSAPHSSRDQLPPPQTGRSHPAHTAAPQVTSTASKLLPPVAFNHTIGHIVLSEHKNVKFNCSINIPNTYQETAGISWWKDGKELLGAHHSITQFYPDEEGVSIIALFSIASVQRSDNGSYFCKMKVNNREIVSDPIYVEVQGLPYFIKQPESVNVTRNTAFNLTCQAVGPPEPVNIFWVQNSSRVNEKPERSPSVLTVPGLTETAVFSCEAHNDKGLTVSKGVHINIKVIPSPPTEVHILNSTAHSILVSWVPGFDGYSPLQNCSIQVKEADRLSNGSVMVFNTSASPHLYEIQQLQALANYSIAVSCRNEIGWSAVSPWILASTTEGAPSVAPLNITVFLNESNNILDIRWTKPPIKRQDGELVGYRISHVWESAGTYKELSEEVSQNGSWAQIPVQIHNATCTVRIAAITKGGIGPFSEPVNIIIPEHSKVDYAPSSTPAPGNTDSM
The method, then: (§1) Binding kinetics of humanized and affinity-matured anti-MerTK antibodies of the present disclosure to human, murine, and cynomolgus MerTK proteins were evaluated as follows. Briefly, anti-MerTK antibodies were prepared by diluting to 10 μg/ml in 10 mM Acetate, pH 4.25 (Carterra, Salt Lake City, Utah), at 300 μl/well. A HC200M sensor chip (Carterra) was activated using the single channel flow cell with a 7-minute injection of a 1:1:1 mixture of 100 mM MES pH 5.5, 100 mM sulfo-NHS, 400 mM EDC (all reconstituted in MES pH 5.5; 100 μl of each mixed in vial immediately before running assay). After switching to the multi-channel array flow cell, the antibodies were injected over the activated chip in a 96-spot array for 15 minutes. The remaining unconjugated active groups on the chip were then blocked by injecting 1M Ethanolamine pH 8.5 (Carterra) for 7 minutes using the single channel flow cell.
(§2) Estimates of affinity were generated by injecting each analyte over the entire antibody array using the single channel flow cell. MerTK analytes were diluted to 33.3, 100, and 300 nM in running buffer, and injected in serial from lowest to highest concentration without regeneration. Two buffer blanks were run between each series (one species per series). Data were processed and analyzed using NextGenKIT high-throughput kinetics analysis software (Carterra). In these experiments, the anti-MerTK antibodies were human IgG1 isotype containing the Fc variant LALAPS.
(§3) The equilibrium dissociation constants (KD) were then calculated from the fitted association and dissociation rate constants (k-on and k-off) for anti-MerTK antibodies of the present disclosure.

Assay [2] has as its target T2, human MerTK extracellular domain (ECD), recombinant (human, UniProt Q12866 21-505).
T2 construct: also called huMerTK; not shown: polyHis tag or TEVS/Thrombin/murine IgG2a Fc tag
T2 sequence: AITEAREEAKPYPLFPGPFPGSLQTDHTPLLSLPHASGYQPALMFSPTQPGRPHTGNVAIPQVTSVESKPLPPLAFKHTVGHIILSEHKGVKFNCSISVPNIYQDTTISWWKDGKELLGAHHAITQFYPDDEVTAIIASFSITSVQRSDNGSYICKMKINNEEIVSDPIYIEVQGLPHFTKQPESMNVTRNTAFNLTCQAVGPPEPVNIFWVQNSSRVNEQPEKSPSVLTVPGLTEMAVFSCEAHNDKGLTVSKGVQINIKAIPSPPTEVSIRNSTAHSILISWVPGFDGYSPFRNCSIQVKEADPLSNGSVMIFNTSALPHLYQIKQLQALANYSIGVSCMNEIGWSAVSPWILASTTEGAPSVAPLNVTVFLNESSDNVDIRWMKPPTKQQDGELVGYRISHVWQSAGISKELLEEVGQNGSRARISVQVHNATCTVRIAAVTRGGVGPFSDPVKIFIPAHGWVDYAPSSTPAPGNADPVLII
How it is done: as §1, §2, §3

In assay [3] the target is T3, cyno MerTK extracellular domain (ECD), recombinant (cynomolgus monkey, UniProt Q12866 21-505 (human entry)).
T3 construct: also called cynomolgus MerTK; not shown: polyHis tag or TEVS/Thrombin/murine IgG2a Fc tag
T3 chain: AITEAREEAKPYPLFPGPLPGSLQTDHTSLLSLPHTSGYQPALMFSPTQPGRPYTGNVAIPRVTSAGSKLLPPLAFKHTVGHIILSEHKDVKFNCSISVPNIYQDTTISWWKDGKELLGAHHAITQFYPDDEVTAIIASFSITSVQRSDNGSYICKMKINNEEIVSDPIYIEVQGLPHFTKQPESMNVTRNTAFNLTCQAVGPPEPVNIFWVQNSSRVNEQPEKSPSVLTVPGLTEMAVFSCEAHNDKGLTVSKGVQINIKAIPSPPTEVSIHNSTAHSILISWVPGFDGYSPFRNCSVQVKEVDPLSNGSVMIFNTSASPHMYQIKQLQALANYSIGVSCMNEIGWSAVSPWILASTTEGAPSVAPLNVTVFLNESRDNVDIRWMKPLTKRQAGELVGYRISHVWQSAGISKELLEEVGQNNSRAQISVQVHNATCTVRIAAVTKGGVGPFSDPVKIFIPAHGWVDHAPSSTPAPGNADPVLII
The method, then:
as §1, §2, §3

B1: MTK-29.12 (antibody, human IgG1, V domains shown)
VH: QVQLVQSGSELKKPGASVKVSCKASSYTFTTYGMSWVRQAPGQGLEWMGWINTMSGVPTYTDDFKGRFVFSLDTSVSTAYLQISSLKAEDTAVYYCARYTNYGVFDYWGQGTLVTVSS
VL: DIQLTQSPGFLSASVGDRVTITCRASSSVGYMHWYQQKPGKAPKLLIYATSNLAQGVPSRFSGSGSGTEFTLTISSLQPEDFATYYCQQWGSLPFTFGQGTKLEIK
Consider B1, for which the Kd in assay [1] is 250 nM; in assay [2], 23 nM; in assay [3] it was 21 nM.

B2: MTK-29.10 (antibody, human IgG1, V domains shown)
VH: QVQLVQSGSELKKPGASVKVSCKTSSYTFTTYGMSWVRQAPGQGLEWMGWINTYSGVPTYTDDFKGRFVFSLDTSVSTAYLQISSLKAEDTAVYYCARYTNYGVFDYWGQGTLVTVSS
VL: EIVLTQSPATLSLSPGERATLSCRASSSVGYMHWYQQKPGQAPRLLIYATSNLASGIPARFSGSGSGTDFTLTISRLEPEDFAVYYCQQWGSLPFTFGGGTKLEIK
In the case of B2, the Kd in assay [1] was 116 nM; in assay [2] it was 4.5 nM; in assay [3], 4.2 nM.

B3: MTK-29.17 (antibody, human IgG1, V domains shown)
VH: QVQLVQSGSELKKPGASVKVSCKASGYIFTSYGLSWVRQAPGQGLEWMGWINTYSGVPTYAQGFTGRFVFSLDTSVSTAYLQISSLKAEDTAVYYCARYTNYGVFDYWGQGTLVTVSS
VL: DIQLTQSPSFLSASVGDRVTITCRSSSSVGYMHWYQQKPGKAPKLLIYATSNLAQGVPSRFSGSGSGTEFTLTISSLQPEDFATYYCQQWGSLPFTFGQGTKLEIK
Regarding B3, the Kd in assay [1] amounted to 170 nM; in assay [2] it was 9.6 nM; in assay [3], 9.9 nM.

B4: MTK-29.11 (antibody, human IgG1, V domains shown)
VH: QVQLVQSGSELKKPGASVKVSCKASSYTFTTYGMSWVRQAPGQGLEWMGWINTDSGVPTYTDDFKGRFVFSLDTSVSTAYLQISSLKAEDTAVYYCARYTNYGVFDYWGQGTLVTVSS
VL: EIVLTQSPATLSLSPGERATLSCRASSSVGYMHWYQQKPGQAPRLLIYATSNLASGIPARFSGSGSGTDFTLTISRLEPEDFAVYYCQQWGSLPFTFGGGTKLEIK
Take B4: the results for the equilibrium dissociation constant (Kd) in assay [1], in assay [2] and in assay [3] were 59 nM, 2.1 nM and 2.4 nM, respectively.

B5: MTK-29.13 (antibody, human IgG1, V domains shown)
VH: QVQLVQSGSELKKPGASVKVSCKASSYTFTTYGMSWVRQAPGQGLEWMGWINTASGVPTYTDDFKGRFVFSLDTSVSTAYLQISSLKAEDTAVYYCARYTNYGVFDYWGQGTLVTVSS
VL: DIQLTQSPSFLSASVGDRVTITCRASSSVGYMHWYQQEPGKAPKLLIYATSNLAQGVPSRFSGSGSGTEFTLTISSLQPEDFATYYCQQWGSLPFTFGQGTKLEIK
Turning to B5, the dissociation constant (Kd) is 170 nM in assay [1], 13 nM in assay [2] and 11 nM in assay [3].

B6: MTK-29.18 (antibody, human IgG1, V domains shown)
VH: QVQLVQSGSELKKPGASVKVSCKASGYIFTSYGLSWVRQAPGQGLEWMGWVNTYSGVPTYTDDFKGRFVFSLDTSVSTAYLQISSLKAEDTAVYYCARYTNYGVFDYWGQGTLVTVSS
VL: EIVLTQSPATLSLSPGERATLSCRASSTVGYMHWYQQKPGQAPRLLIYATSNLASGIPARFSGSGSGTDFTLTISRLEPEDFAVYYCQQWGSLPFTFGGGTKLEIK
With B6, the results for the Kd in assay [1], in assay [2] and in assay [3] were 140 nM, 4.7 nM and 4.9 nM, respectively.

B7: MTK-29.15 (antibody, human IgG1, V domains shown)
VH: QVQLVQSGSELKKPGASVKVSCKASSYTFTTYGMSWVRQAPGQGLEWMGWINTMSGVPTYTDDFKGRFVFSLDTSVSTAYLQISSLKAEDTAVYYCARYTNYGVFDYWGQGTLVTVSS
VL: DIQLTQSPSFPSASVGDRVTITCRASSSVGYMHWYQQKPGKAPKLLIYATSNLAQGVPSRFSGSGSGTEFTLTISSLQPEDFATYYCQQWGSLPFTFGQGTKLEIK
B7: the binding result in assay [1] was “no binding (tested: 300 nM)”. For the same molecule, the Kd stood at 7.4 nM in assay [2] and 8.4 nM in assay [3].

B8: MTK-29.14 (antibody, human IgG1, V domains shown)
VH: QVQLVQSGSELKKPGASVKVSCKASSYTFTTYGMSWVRQAPGQGLEWMGWINTYSGVPSYTDDFKARFVFSLDTSVSTAYLQISSLKAEDTAVYYCARYTNYGVFDYWGQGTLVTVSS
VL: DIQLTQSPSFLSASVGDRVTITCRASSSVGYMHWYQQKPGKAPKLLIYATSNLAQGVPSRFSGSGSGTEFTLTIFSLQPEDFATYYCQQWGSLPFTFGQGTKLEIK
As for B8, the Kd in assay [1] was 100 nM; in assay [2], 7.6 nM; in assay [3] it was 7.3 nM.

B9: MTK-29.16 (antibody, human IgG1, V domains shown)
VH: QVQLVQSGSELKKPGASVKVSCKASGYIFTSYGLSWVRQAPGQGLEWMGWVNTYSGVPTYTDDFKGRFVFSLDTSVSTAYLQISSLKAEDTAVYYCARYTNYGVFDYWGQGTLVTVSS
VL: DIQLTQSPSFLSASVGDRVTITCRASSSVGYMHWYQQKPGKAPKLLIYATSNLAQGVPSRFSGSGSGTEFTLTISSLQPEDFATYYCQQWGRLPFTFGQGTKLEIK
With B9, the values for the Kd in assay [1], in assay [2] and in assay [3] were 205 nM, 8.6 nM and 8.8 nM, respectively.

B10: MTK-33.13 (antibody, human IgG1, V domains shown)
VH: QVQLVQSGAEVKKPGASVKVSCKASGYTFTSYWMHWVRQAPGQGLEWIGVIDPSDNYINYNQKFQGRVTMTRDTSTSTVYMELSSLRSEDTAVYYCAREAGTRGYFDYWGQGTLVTVSS
VL: DIQMTQSPSSLSASVGDRVTITCQASRSVSNTVAWYQQKPGKAPKLLIYYASNRYTGVPSRFSGSGSGTDFTFTISSLQPEDIATYYCQQDYRSPFTFGQGTKLEIK
Turning to B10, the Kd in assay [1] worked out at 225 nM; in assay [2], 20 nM; in assay [3] it was 18 nM.

B11: MTK-33.7 (antibody, human IgG1, V domains shown)
VH: QVQLVQSGAEVKKPGASVKVSCKASGYTFTSYWMHWVRQAPGQGLEWIGVIDPSDNYINYNAKFQGRVTMTRDTSTSTVYMELSSLRSEDTAVYYCAREAGTRGYFDYWGQGTLVTVSS
VL: DIQMTQSPSSLSASVGDRVTITCGASQSVSNTVAWYQQKPGKAPKLLIYYASNRYTGVPSRFSGSGSGTDFTFTISSLQPEDIATYYCQQDYRSPFTFGQGTKLEIK
On to B11, for which the Kd in assay [1] was determined as 800 nM; in assay [2], 78 nM; in assay [3], 78 nM.

B12: MTK-33.5 (antibody, human IgG1, V domains shown)
VH: QVQLVQSGAEVKKPGASVKVSCMASGYTFGSYWMHWVRQAPGQGLEWIGVIDPSDNYINYNQKFQGRVTMTRDTSTSTVYMELSSLRSEDTAVYYCAREAGTRGYFDYWGQGTLVTVSS
VL: DIQMTQSPSSLSASVGDRVTITCQASQSVSNTVAWYQQKPGKAPKLLIYYASNRETGVPSRFSGSGSGTDFTFTISSLQPEDIGTYYCQQDYRSPFTFGQGTKLEIK
As for B12, the values for the Kd in assay [1], in assay [2] and in assay [3] were 140 nM, 28 nM and 26 nM, respectively.

In general, Kd refers to a measure of binding affinity in units of concentration.
